T1: SBDSco E156R (Streptomyces coelicolor, UniProt Q9L0M9 90-250, E156R)
T1 sequence: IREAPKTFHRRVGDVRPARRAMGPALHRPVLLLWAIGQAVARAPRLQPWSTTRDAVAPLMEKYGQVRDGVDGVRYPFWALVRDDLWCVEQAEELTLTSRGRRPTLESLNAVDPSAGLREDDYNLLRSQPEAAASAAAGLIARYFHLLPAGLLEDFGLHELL

T2: SBDSco E156L (Streptomyces coelicolor, UniProt Q9L0M9 90-250, E156L)
T2 sequence: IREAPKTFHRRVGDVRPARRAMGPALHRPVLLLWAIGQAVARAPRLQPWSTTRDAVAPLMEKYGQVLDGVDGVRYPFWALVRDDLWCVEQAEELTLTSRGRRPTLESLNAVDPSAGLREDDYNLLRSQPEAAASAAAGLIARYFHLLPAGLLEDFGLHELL

T3: SBDSco E156D (Streptomyces coelicolor, UniProt Q9L0M9 90-250, E156D)
T3 sequence: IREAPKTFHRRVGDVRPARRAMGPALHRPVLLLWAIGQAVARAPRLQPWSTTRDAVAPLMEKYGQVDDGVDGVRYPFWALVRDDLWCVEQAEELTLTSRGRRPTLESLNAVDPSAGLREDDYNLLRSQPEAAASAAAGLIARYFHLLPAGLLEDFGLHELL

T4: SBDSco E156Q (Streptomyces coelicolor, UniProt Q9L0M9 90-250, E156Q)
T4 sequence: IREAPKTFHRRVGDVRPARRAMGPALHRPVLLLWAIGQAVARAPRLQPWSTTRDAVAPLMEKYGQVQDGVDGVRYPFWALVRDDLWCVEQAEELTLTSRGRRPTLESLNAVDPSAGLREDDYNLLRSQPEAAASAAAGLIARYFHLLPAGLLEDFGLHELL

T5: SBDSco (SBD of ScoMcrA) (Streptomyces coelicolor, UniProt Q9L0M9 90-250)
T5 sequence: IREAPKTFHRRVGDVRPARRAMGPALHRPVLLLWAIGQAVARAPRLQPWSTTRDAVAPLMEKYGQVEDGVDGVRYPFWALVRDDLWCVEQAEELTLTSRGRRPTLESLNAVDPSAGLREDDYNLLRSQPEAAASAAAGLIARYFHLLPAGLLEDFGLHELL

T6: SBDSco E156K (Streptomyces coelicolor, UniProt Q9L0M9 90-250, E156K)
T6 sequence: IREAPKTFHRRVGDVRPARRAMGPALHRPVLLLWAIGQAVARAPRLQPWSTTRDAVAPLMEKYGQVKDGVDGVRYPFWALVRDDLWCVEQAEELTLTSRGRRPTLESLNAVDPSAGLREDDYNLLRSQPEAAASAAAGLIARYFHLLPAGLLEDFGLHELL

T7: SBDSco E156R/D157R (Streptomyces coelicolor, UniProt Q9L0M9 90-250, E156R;D157R)
T7 sequence: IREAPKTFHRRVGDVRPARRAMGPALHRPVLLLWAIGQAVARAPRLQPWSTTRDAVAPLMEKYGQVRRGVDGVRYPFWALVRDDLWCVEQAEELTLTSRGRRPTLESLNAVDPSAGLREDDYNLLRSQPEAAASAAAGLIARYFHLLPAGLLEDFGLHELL

B1: PT-GATC-10 RP (hemi-PT) (dsDNA)
DNA 1: GATGATCCTA
DNA 2: TAGGATCATC
modifications: RP phosphorothioate between G4 and A5 of strand 1
B2: PT-CCA-10 SP (hemi-PT) (dsDNA)
DNA 1: GAACCCAAGC
DNA 2: GCTTGGGTTC
modifications: SP phosphorothioate between C5 and C6 of strand 1
B3: PT-GATC-10 SP (hemi-PT) (dsDNA)
DNA 1: GATGATCCTA
DNA 2: TAGGATCATC
modifications: SP phosphorothioate between G4 and A5 of strand 1
B4: PT-CCA-10 RP (hemi-PT) (dsDNA)
DNA 1: GAACCCAAGC
DNA 2: GCTTGGGTTC
modifications: RP phosphorothioate between C5 and C6 of strand 1
B5: PT-GAAC-10 RP (hemi-PT) (dsDNA)
DNA 1: GGCGAACGTG
DNA 2: CACGTTCGCC
modifications: RP phosphorothioate between G4 and A5 of strand 1

How the values were obtained:
Assay in all cases: fluorescence polarization; FP: 20 mM Tris-HCl pH 8.0, 50 mM NaCl, 5% glycerol, 1 mM DTT, 5 nM probe, room temperature; EMSA: 20 mM Tris-HCl pH 8.0, 100 mM NaCl, 5% glycerol, room temperature, protein 4x DNA
[1] = target: T1, SBDSco E156R; conditions: protein: recombinant; tags: 6xHis; label: 5'-FAM on one strand (FP); blunt
[2] = target: T2, SBDSco E156L; conditions: protein: recombinant; tags: 6xHis; label: 5'-FAM on one strand (FP); blunt
[3] = target: T3, SBDSco E156D; conditions: protein: recombinant; tags: 6xHis; label: 5'-FAM on one strand (FP); blunt
[4] = target: T4, SBDSco E156Q; conditions: protein: recombinant; tags: 6xHis; label: 5'-FAM on one strand (FP); blunt
[5] = target: SBDSpr (SBD of SprMcrA) (Streptomyces pristinaespiralis, UniProt A0A0M4DML1 1-165); conditions: protein: recombinant, tags: N-terminal 6xHis (pET28a), blunt; for Kd: label: 5'-FAM on one strand (FP); for binding result: label: 5'-FAM on one strand
[6] = target: T5, SBDSco (SBD of ScoMcrA); conditions: protein: recombinant; tags: N-terminal 6xHis (pET28a); label: 5'-FAM on one strand (FP); blunt
[7] = target: T6, SBDSco E156K; conditions: protein: recombinant; tags: 6xHis; label: 5'-FAM on one strand (FP); blunt
[8] = target: T7, SBDSco E156R/D157R; conditions: protein: recombinant; tags: 6xHis; label: 5'-FAM on one strand (FP); blunt

| Binder | Kd [1] [nM] | Kd [2] [nM] | Kd [3] [nM] | Kd [4] [nM] | Kd [5] [nM] | Kd [6] [nM] | Kd [7] [nM] | Kd [8] [nM] | binding result [5] |
| --- | --- | --- | --- | --- | --- | --- | --- | --- | --- |
| B1 | 346 ± 17 | 791 ± 42 | 1320 ± 99 | 1020 ± 49 | 38 ± 8 | 1090 ± 58 | 370 ± 14 | 192 ± 12 | – |
| B2 | – | – | – | – | – | – | – | – | no binding |
| B3 | – | – | – | – | – | – | – | – | no binding |
| B4 | – | – | – | – | – | – | – | – | no binding |
| B5 | 267 ± 15 | 499 ± 37 | 846 ± 74 | 618 ± 43 | 95 ± 25 | 567 ± 37 | 297 ± 19 | 183 ± 9 | – |

From PMC7470945, “DNA backbone interactions impact the sequence specificity of DNA sulfur-binding domains: revelations from structural analyses”
